The source of these data is PMC6222095.

pKd: −log10 of the molar value. “And” between values parts separate entries of the source, which are not always exact repeats. Equal entries are not always repeated.

Experiment [1] concerns the target complement factor H, homozygous Tyr-402, homozygous or heterozygous at I62V (human) (UniProt P08603). The experiment can be described thus: SAXS; concentration dependence of Guinier I(0)/c at 0.4-3.3 mg/ml in HEPES buffer, two samples of each allotype; KD estimated assuming a monomer-dimer equilibrium (dimer to monomers).
Experiment [2] has the same target. The experiment can be described thus: AUC; sedimentation velocity, 20 °C, 50,000 and 60,000 rpm, HEPES buffer (10 mM HEPES, 137 mM NaCl, pH 7.4), five samples of each allotype at 0.5, 1.1 and 2.1 mg/ml; c(s) peak integration; dimer and trimer percentages at 1.1 mg/ml.
Experiment [3] concerns the target recombinant FH SCR-6/8 His-402 (human). The experiment can be described thus: SPR; Biacore X100, 150 RU (His-402 also 400 RU) of SCR-6/8 amine-coupled to a CM4 chip, SCR-6/8 allotypes flowed at 5-40 μM, 25 °C, HEPES buffer with 0.3 mg/ml nonspecific binding reducer; steady-state fits.
The target of experiment [4] is recombinant FH SCR-6/8 Tyr-402 (human). The description is as above.
For experiment [5], the target named is complement factor H, double homozygous His-402/Val-62 allotype (human) (UniProt P08603). The experiment in a line: native MS; Q-ToF nanoflow, FH at about 4 mg/ml (4.4 or 3.6 mg/ml) in 1 M ammonium acetate, pH 7.0; peak integration.
For experiment [6] the target is unchanged. The experiment can be described thus: SAXS; concentration dependence of Guinier I(0)/c at 0.4-3.3 mg/ml in HEPES buffer, two samples of each allotype; KD estimated assuming a monomer-dimer equilibrium (dimer to monomers).
Experiment [7] has the same target. The experiment in a line: AUC; sedimentation velocity, 20 °C, 50,000 and 60,000 rpm, HEPES buffer (10 mM HEPES, 137 mM NaCl, pH 7.4), five samples of each allotype at 0.5, 1.1 and 2.1 mg/ml; c(s) peak integration; dimer and trimer percentages at 1.1 mg/ml.
For experiment [8] the target is unchanged. The experiment can be described thus: SPR; Biacore X100, 800 RU of full-length FH amine-coupled to a CM3 chip, FH allotypes flowed at 1.3-12.3 μM, 25 °C, HEPES buffer; estimated KD from steady-state 1:1 affinity fit of maximum responses; sensorgrams did not fit a 1:1 kinetic model.
For experiment [9] the target is unchanged. The experiment in a line: native MS; Q-ToF nanoflow, FH at about 4 mg/ml (3.9 mg/ml, 25.3 μM) in 140 mM ammonium acetate, pH 7.0; peak integration.
Experiment [10] deals with complement factor H, homozygous Tyr-402/Val-62 allotype (human) (UniProt P08603). The experiment in a line: native MS; Q-ToF nanoflow, FH at about 4 mg/ml (4.4 or 3.6 mg/ml) in 1 M ammonium acetate, pH 7.0; peak integration.
Experiment [11] has the same target. The experiment in a line: SPR; Biacore X100, 800 RU of full-length FH amine-coupled to a CM3 chip, FH allotypes flowed at 1.3-12.3 μM, 25 °C, HEPES buffer; estimated KD from steady-state 1:1 affinity fit of maximum responses; sensorgrams did not fit a 1:1 kinetic model.
The target is the same in experiment [12]. The experiment can be described thus: native MS; Q-ToF nanoflow, FH at about 4 mg/ml (3.9 mg/ml, 25.3 μM) in 140 mM ammonium acetate, pH 7.0; peak integration.

A word on the pKd: it is −log10 of the Kd, conventionally taken in molar units. The term stoichiometry N denotes a count of units in the complex or per binding partner.

In the case of “complement factor H, homozygous Tyr-402, homozygous or heterozygous at I62V (from UniProt P08603 19-1231) (natural protein)”, the negative logarithm of the Kd (pKd) in experiment [1] was 4.80 and 4.74. Besides, in experiment [2], the percent dimer was found to be 4%, the percent oligomers (peaks 2-9) is 11.7%, the percent trimer was found to be 2.1% and the stoichiometry N was < 9.
Regarding “recombinant FH SCR-6/8 Tyr-402 (domain or fragment)”, the pKd in experiment [3] and in [4] was < 4.40 throughout.
Turning to “complement factor H, double homozygous His-402/Val-62 allotype (from UniProt P08603 19-1231) (natural protein)”, in [5], the percent dimer was 2% and the stoichiometry N stood at 2. The pKd in [6] was 4.96 and 4.66. In addition, in experiment [7], the percent dimer was 5.7%, the percent oligomers (peaks 2-9) is 12.8%, the percent trimer is 2.5% and the stoichiometry N was < 9. Further, in experiment [8], the negative-log Kd (pKd) was 5.17. In addition, in experiment [9], the percent dimer came to 17%, the percent trimer is 6% and the stoichiometry N is < 3.
Take “recombinant FH SCR-6/8 His-402 (domain or fragment)”: the negative logarithm of the Kd (pKd) in experiment [3] and in experiment [4] was < 4.40 each time.
In [10], “complement factor H, homozygous Tyr-402/Val-62 allotype (from UniProt P08603 19-1231) (natural protein)” came in with a percent dimer of 10% and a stoichiometry N of 2. For the same substance, the pKd in experiment [11] was 5.10. In addition, in [12], the percent dimer amounted to 24%, the percent trimer turned out to be 4% and the stoichiometry N was < 3.
